Test results from US20110312522A1, “METHODS OF DETECTION OF CANCER USING PEPTIDE PROFILES” (Sloan-Kettering Institute for Cancer Research, priority 2005, published 2011).
Ends that are not written are not given here.

Tests used:
[1] = Degradation of synthetic peptides added to fresh plasma, MALDI-TOF MS read-out; format: in vitro ADME, human
Experimental: In an effort to begin to understand the presence and roles of exoproteases, synthetic C3f was added to fresh plasma at a concentration close to that observed in serum. […] The resulting pattern was similar to the endogenous one observed in serum and also illustrated the disparate ion intensities for different rungs in the ladder.

[2] = Degradation of synthetic peptides in control serum and plasma (MALDI-TOF MS-based protease assay); format: in vitro ADME, human
Text: A large part of the human serum ‘peptidome’, as detected by MALDI-TOF MS, is generated ex vivo (i.e., after blood collection) by protease degradation of blood proteins. Endoproteases produce ‘founder peptides’ which are then pared down by exoproteases into ladder-like clusters. Panels of proteolytic activity in the blood contribute important cancer type-specific information, and that the resulting metabolic patterns have utility as surrogate markers for detection and classification of cancer. Degradation occurs during clotting. The use of exogenous synthetic peptides, identical to previously observed founder peptides, can be used to monitor cancer-specific proteolytic degradation in plasma or serum that contains proteases. Conditions in terms of time, temperature and added amounts of substrates can hereby be readily controlled. Coupled to a MALDI-based read-out, such analyses are blood “protease assays” to monitor the tumor-dependent activities inferred from prior studies. Simultaneous addition of non-degradable, exogenous reference peptides also enables relative quantitation of all rungs in the ladders.
The degradation conditions and times were studied for C3f and FPA in serum and plasma as described above. […] 2 picomoles [^13C-Leu]-labeled C3f was incubated for 30 min at RT with […] aliquots of serum from 20 different breast cancer patients and 20 control samples. […]

Substance	exoproteolytic degradation in plasma (in words) [1]	degradation in control serum and plasma (in words) [2]	degradation time [2]
FPA: synthetic fibrinopeptide A, N-terminally cleaved from fibrinogen by thrombin (ADSGEGDFLAEGGGVR; Fibrinopeptide A; UniProt P02671 20-35, looked up)	followed a similar time course	readily degraded	up to 4 hours
FPB: fibrinopeptide B, added to plasma like synthetic FPA (QGVNDNEEGFFSAR; ends and bridges not checked; UniProt P02675 31-44, looked up)	completely degraded in just a few minutes	–	–
